Test results taken from IntAct's records for PubMed 39938803.

B1: Retinoblastoma-associated protein (Homo sapiens), P06400 (parent)
chain: MPPKTPRKTAATAAAAAAEPPAPPPPPPPEEDPEQDSGPEDLPLVRLEFEETEEPDFTALCQKLKIPDHVRERAWLTWEKVSSVDGVLGGYIQKKKELWGICIFIAAVDLDEMSFTFTELQKNIEISVHKFFNLLKEIDTSTKVDNAMSRLLKKYDVLFALFSKLERTCELIYLTQPSSSISTEINSALVLKVSWITFLLAKGEVLQMEDDLVISFQLMLCVLDYFIKLSPPMLLKEPYKTAVIPINGSPRTPRRGQNRSARIAKQLENDTRIIEVLCKEHECNIDEVKNVYFKNFIPFMNSLGLVTSNGLPEVENLSKRYEEIYLKNKDLDARLFLDHDKTLQTDSIDSFETQRTPRKSNLDEEVNVIPPHTPVRTVMNTIQQLMMILNSASDQPSENLISYFNNCTVNPKESILKRVKDIGYIFKEKFAKAVGQGCVEIGSQRYKLGVRLYYRVMESMLKSEEERLSIQNFSKLLNDNIFHMSLLACALEVVMATYSRSTSQNLDSGTDLSFPWILNVLNLKAFDFYKVIESFIKAEGNLTREMIKHLERCEHRIMESLAWLSDSPLFDLIKQSKDREGPTDHLESACPLNLPLQNNHTAADMYLSPVRSPKKKGSTTRVNSTANAETQATSAFQTQKPLKSTSLSLFYKKVYRLAYLRLNTLCERLLSEHPELEHIIWTLFQHTLQNEYELMRDRHLDQIMMCSMYGICKVKNIDLKFKIIVTAYKDLPHAVQETFKRVLIKEEEYDSIIVFYNSVFMQRLKTNILQYASTRPPTLSPIPHIPRSPYKFPSSPLRIPGGNIYISPLKSPYKISEGLPTPTKMTPRSRILVSIGESFGTSEKFQKINQMVCNSDRVLKRSAEGSNPPKPLKKLRFDIEGSDEADGSKHLPGESKFQQKLAEMTSTRTRMQKQKMNDSMDTSNKEEK

What was measured:
e2f1_human E2F1, Q01094 [1] = variants of: B1; conditions: with e2f1_human E2F1, Q01094
Chain of e2f1_human E2F1, Q01094 (Q01094 whole entry): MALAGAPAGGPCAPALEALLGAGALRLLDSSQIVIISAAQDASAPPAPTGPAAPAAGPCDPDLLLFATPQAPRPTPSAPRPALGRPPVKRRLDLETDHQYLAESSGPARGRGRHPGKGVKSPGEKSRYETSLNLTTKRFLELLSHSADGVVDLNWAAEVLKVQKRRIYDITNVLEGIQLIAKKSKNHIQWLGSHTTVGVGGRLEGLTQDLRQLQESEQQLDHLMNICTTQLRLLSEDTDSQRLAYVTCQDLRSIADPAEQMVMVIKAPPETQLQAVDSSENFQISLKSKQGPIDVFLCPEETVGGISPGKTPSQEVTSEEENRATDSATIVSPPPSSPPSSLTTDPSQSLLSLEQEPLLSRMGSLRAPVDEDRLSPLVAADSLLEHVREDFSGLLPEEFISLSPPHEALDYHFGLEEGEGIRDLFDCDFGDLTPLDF

ve7_hpv16 E7, P03129 [2] = variants of: B1; conditions: with ve7_hpv16 E7, P03129
Chain of ve7_hpv16 E7, P03129 (P03129 whole entry): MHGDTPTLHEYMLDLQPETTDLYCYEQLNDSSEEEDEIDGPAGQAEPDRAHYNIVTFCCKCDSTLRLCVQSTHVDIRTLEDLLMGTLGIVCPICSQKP

ve7_hpv16 E7, P03129 [3] = variants of: B1; conditions: with ve7_hpv16 E7, P03129; remark: listed apart in the source
e2f1_human E2F1, Q01094 [4] = variants of: B1; conditions: with e2f1_human E2F1, Q01094; remark: listed apart in the source

| Variant | effect of a mutation on the interaction (e2f1_human E2F1, Q01094 [1]) | effect of a mutation on the interaction (ve7_hpv16 E7, P03129 [2]) | effect of a mutation on the interaction (ve7_hpv16 E7, P03129 [3]) | effect of a mutation on the interaction (e2f1_human E2F1, Q01094 [4]) |
| --- | --- | --- | --- | --- |
| S443L | decreasing interaction strength | decreasing interaction strength |  |  |
| S534R | disrupting interaction strength | increasing interaction strength | decreasing interaction strength |  |
| A490V | decreasing interaction strength | decreasing interaction strength |  |  |
| A490S | decreasing interaction strength | decreasing interaction strength |  |  |
| A490T | decreasing interaction strength | decreasing interaction strength |  | disrupting interaction strength |
| E533K | disrupting interaction strength | decreasing interaction strength |  |  |
| Q444L | with no effect | increasing interaction strength |  | decreasing interaction strength |
| Q444R | decreasing interaction strength | decreasing interaction strength |  |  |
| K530I | disrupting interaction strength | decreasing interaction strength |  |  |
| H555Y | disrupting interaction strength | decreasing interaction strength |  |  |
| E554K | disrupting interaction strength | decreasing interaction strength |  |  |
| K462E | decreasing interaction strength | decreasing interaction strength |  |  |
| K462T | decreasing interaction strength | decreasing interaction strength |  |  |
| A525G | decreasing interaction strength | decreasing interaction strength |  |  |
| S463L | decreasing interaction strength | decreasing interaction strength |  |  |
| K548N | disrupting interaction strength | decreasing interaction strength |  |  |

| Variant | effect of a mutation on the interaction (e2f1_human E2F1, Q01094 [1]) | effect of a mutation on the interaction (ve7_hpv16 E7, P03129 [2]) | effect of a mutation on the interaction (ve7_hpv16 E7, P03129 [3]) | effect of a mutation on the interaction (e2f1_human E2F1, Q01094 [4]) |
| --- | --- | --- | --- | --- |
| R556Q | decreasing interaction strength | with no effect | decreasing interaction strength |  |
| E440K | increasing interaction strength | with no effect | decreasing interaction strength | decreasing interaction strength |
| L550I | decreasing interaction strength | increasing interaction strength |  |  |
| E492Q | decreasing interaction strength | decreasing interaction strength |  |  |
| A488V | decreasing interaction strength | decreasing interaction strength |  |  |
| E539D | decreasing interaction strength | decreasing interaction strength |  | disrupting interaction strength |
| S474N | decreasing interaction strength | decreasing interaction strength |  |  |
| S474R | disrupting interaction strength | with no effect | decreasing interaction strength |  |
| S474I | disrupting interaction strength | decreasing interaction strength |  |  |
| Q504E | decreasing interaction strength | with no effect | decreasing interaction strength |  |
| L572I | decreasing interaction strength | increasing interaction strength | decreasing interaction strength |  |
| R451C | decreasing interaction strength | decreasing interaction strength |  |  |
| R451S | decreasing interaction strength | decreasing interaction strength |  |  |
| R451H | decreasing interaction strength | decreasing interaction strength |  |  |
| M546I | increasing interaction strength | decreasing interaction strength |  |  |
